Source: patent publication US8173397B2, “Folded recombinant catalytic fragments of multidomain serine proteases, preparation and uses thereof” (TargetEx Kft., priority 2002, dated 2012)

What was measured:
MASP-2 fragments = target: T1, MASP-2 fragments (Homo sapiens, UniProt O00187); assay: Inhibition of the enzymatic activities of the MASP-2 fragments by C1-inhibitor and alpha-2-macroglobulin; format: biochemical; conditions: for molar excess of inhibitor that abolishes all cleavages by the MASP-2 fragments: preincubation, C2, C3, C3(NH3), C4 substrates
T1 construct: T7-Tag fragment Ala-Ser-Met (N, cleaved yes); made in house
T1 sequence (O00187 445-686 limits assumed): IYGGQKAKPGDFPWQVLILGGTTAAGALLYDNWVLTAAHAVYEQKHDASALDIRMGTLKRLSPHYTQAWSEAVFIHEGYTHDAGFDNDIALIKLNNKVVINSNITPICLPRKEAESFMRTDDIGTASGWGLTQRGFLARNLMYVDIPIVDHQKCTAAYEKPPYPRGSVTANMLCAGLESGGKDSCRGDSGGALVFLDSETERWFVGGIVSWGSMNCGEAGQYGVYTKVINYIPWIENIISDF
T1 sequence (O00187 291-444 partner limits assumed): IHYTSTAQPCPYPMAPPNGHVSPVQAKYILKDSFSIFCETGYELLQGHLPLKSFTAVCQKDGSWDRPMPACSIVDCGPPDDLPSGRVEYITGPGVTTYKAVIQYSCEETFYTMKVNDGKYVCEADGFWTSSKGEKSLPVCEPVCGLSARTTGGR
Procedure: (§1) Reactivity toward C1-inhibitor and alpha-2-macroglobulin—Inhibition of the enzymatic activities of the MASP fragments by C1-inhibitor and alpha-2-macroglobulin were tested as follows. MASP-1 and MASP-2 fragments at concentrations selected in the C2, C3, C3(NH3) and C4 cleavage tests were incubated at 37° C. with excess molar ratios of either C1-inhibitor, alpha-2-macroglobulin, or buffer in 20 mM HEPES, 140 mM NaCl, pH 7.4 for 40 minutes. Complement substrates C2, C3, C3(NH3) or C4 were added at typical concentrations of 0.5-1 μM and the samples were further incubated for 20 minutes. The cleaved and uncleaved chains were visualized by reducing SDS-PAGE and the degree of inhibition was compared.

MASP-1 CCP1-CCP2-SP = target: T2, MASP-1 CCP1-CCP2-SP (Homo sapiens, UniProt P48740); assay: Inhibition of the enzymatic activities of the MASP-1 fragment by C1-inhibitor and alpha-2-macroglobulin; format: biochemical
T2 construct: made in house
T2 sequence (P48740 298-699): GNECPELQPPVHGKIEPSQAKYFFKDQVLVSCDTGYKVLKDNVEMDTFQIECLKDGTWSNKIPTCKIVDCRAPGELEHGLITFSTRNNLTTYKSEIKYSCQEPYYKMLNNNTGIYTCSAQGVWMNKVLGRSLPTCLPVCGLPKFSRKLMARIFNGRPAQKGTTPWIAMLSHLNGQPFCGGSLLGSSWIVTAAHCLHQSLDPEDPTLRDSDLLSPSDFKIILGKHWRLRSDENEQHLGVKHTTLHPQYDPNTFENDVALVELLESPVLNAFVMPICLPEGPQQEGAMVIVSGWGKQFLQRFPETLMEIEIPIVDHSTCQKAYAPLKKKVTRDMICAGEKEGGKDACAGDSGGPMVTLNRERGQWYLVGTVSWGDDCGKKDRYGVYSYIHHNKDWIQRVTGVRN
Procedure: as §1

[1] = marginal molar excess over the enzyme

effect on proteolytic activity of MASP-2 on all substrates, in words (MASP-2 fragments; [1]) | molar excess of inhibitor that abolishes all cleavages by the MASP-2 fragments (MASP-2 fragments) | effect on proteolytic activity of MASP-1 on all substrates, in words (MASP-1 CCP1-CCP2-SP; [1]) | molar excess over the MASP-2 fragments capable of significantly hindering C2 and C4 cleavage (MASP-2 fragments; C2 and C4 cleavage) [fold] | molar excess over MASP-2 CCP1-CCP2-SP that blocks C3 cleavages (MASP-2 fragments; C3 cleavage) | molar excess that completely blocks cleavage of C2 by the MASP-1 CCP1-CCP2-SP fragment (MASP-1 CCP1-CCP2-SP; C2 cleavage) | molar excess over MASP-1 CCP1-CCP2-SP that blocks C3 cleavages (MASP-1 CCP1-CCP2-SP; C3 cleavage) | Substance
completely abolished | 1-3 fold | completely abolished | – | – | – | – | C1-inhibitor: serpin C1-inhibitor purified from human serum
– | 40 fold | – | 40 | 1-3 fold | 1-3 fold | 1-3 fold | alpha-2-macroglobulin: human alpha-2-macroglobulin isolated from plasma
